Test [1] addresses YsaN∆83 (Yersinia enterocolitica 8081). Nature of the test: SEC; analytical Superdex 200 HR 10/30; about 10 µM protein pre-incubated with 1.5 mM ADP and 1.5 mM AlCl3 (ADP.AlFX); 50 mM Tris pH 8.0, 100 mM KCl, 4 mM MgCl2, 5 mM NaF, 1 mM DTT, 5% glycerol; 0.5 ml/min, room temperature; apparent molecular weight from a standard curve. For orientation: SEC sorts molecules by how far they enter the pores of the column.

Test [2] has the same target. Nature of the test: negative-stain TEM.
The target in test [3] is YsaN wild type full length (untagged) (Yersinia enterocolitica 8081). Nature of the test: SEC; analytical Superdex 200 HR 10/30; about 10 µM protein pre-incubated with 1.5 mM ADP and 1.5 mM AlCl3 (ADP.AlFX); 50 mM Tris pH 8.0, 100 mM KCl, 4 mM MgCl2, 5 mM NaF, 1 mM DTT, 5% glycerol; 0.5 ml/min, room temperature; apparent molecular weight from a standard curve.

Values joined by “and” are separate entries in the source; they are usually repeats but may differ in a detail not shown here. Identical values can stand only once.

Take YsaN∆83 (domain or fragment): the stoichiometry N in test [1] and in test [2] was 6 throughout.

As for “YsaN wild type full length (untagged) (enzyme)”, in test [3], the stoichiometry N (usually a count of units in the complex or per binding partner) was 6 and 12.

Source of the values: PMC9493007.
